Experimental data as given in patent publication US10428140B2, “Anti-EphA4 antibody” (EISAI R&D MANAGEMENT CO., LTD., priority 2015, dated 2019).
Substitutions are numbered along the chain they refer to. Each block holds one molecule with its values, some of them ahead of it.

Tests used:
Assay in all cases: Selectivity ELISA of humanized antibodies for human Eph receptor
Assay type in all cases: binding
Details in all cases: coated protein 1 nM
human EphA5 = target: T1, human EphA5 (Homo sapiens, UniProt P54756)
T1 construct: a protein of the extracellular region of each human Eph receptor fused with the SEAP protein and the His tag; made in house; host or cells: Expi293F cells (culture supernatant)
T1 sequence (P54756 25-573 limits assumed): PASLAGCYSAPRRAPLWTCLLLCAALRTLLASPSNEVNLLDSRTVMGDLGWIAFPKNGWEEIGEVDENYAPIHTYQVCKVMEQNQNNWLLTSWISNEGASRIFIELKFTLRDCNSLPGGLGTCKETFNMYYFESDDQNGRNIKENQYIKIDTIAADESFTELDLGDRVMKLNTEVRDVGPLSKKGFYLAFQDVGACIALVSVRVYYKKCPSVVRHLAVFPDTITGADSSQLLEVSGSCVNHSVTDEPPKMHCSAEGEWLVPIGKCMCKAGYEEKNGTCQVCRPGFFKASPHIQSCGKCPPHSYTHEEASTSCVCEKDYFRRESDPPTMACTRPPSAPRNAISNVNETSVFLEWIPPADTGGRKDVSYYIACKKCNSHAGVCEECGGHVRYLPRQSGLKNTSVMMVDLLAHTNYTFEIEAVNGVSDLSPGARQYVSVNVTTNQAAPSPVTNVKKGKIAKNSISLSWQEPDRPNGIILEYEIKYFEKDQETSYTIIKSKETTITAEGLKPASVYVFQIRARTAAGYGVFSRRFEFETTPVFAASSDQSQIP
Summary of the method: (§1)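 Extracellular domains of human Eph receptors fused to SEAP-His were expressed in Expi293F cells for 5 days and captured from supernatant (1 nM final) on anti-His-coated plates. Humanized anti-EphA4 antibodies were incubated 1 h at room temperature, then HRP anti-IgG secondary, TMB substrate, and absorbance at 450 nm.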

human EphB1 = target: T2, human EphB1 (Homo sapiens, UniProt P54762)
T2 construct: a protein of the extracellular region of each human Eph receptor fused with the SEAP protein and the His tag; made in house; host or cells: Expi293F cells (culture supernatant)
T2 sequence (P54762 18-540 limits assumed): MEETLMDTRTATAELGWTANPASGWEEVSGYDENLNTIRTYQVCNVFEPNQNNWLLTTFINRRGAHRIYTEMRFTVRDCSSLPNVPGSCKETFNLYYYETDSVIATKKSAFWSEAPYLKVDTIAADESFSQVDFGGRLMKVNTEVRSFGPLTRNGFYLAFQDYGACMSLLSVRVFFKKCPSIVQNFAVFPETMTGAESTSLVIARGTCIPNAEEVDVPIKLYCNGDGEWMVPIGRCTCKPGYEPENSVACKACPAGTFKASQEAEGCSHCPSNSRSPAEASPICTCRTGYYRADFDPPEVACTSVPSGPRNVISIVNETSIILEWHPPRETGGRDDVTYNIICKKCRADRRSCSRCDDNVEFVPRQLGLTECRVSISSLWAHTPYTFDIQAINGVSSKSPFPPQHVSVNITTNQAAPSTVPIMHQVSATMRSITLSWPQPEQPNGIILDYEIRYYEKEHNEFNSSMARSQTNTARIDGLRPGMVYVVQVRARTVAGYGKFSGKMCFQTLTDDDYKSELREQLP
Summary of the method: as §1

human EphB2 = target: T3, human EphB2 (Homo sapiens, UniProt P29323)
T3 construct: a protein of the extracellular region of each human Eph receptor fused with the SEAP protein and the His tag; made in house; host or cells: Expi293F cells
T3 sequence (P29323 19-543 limits assumed): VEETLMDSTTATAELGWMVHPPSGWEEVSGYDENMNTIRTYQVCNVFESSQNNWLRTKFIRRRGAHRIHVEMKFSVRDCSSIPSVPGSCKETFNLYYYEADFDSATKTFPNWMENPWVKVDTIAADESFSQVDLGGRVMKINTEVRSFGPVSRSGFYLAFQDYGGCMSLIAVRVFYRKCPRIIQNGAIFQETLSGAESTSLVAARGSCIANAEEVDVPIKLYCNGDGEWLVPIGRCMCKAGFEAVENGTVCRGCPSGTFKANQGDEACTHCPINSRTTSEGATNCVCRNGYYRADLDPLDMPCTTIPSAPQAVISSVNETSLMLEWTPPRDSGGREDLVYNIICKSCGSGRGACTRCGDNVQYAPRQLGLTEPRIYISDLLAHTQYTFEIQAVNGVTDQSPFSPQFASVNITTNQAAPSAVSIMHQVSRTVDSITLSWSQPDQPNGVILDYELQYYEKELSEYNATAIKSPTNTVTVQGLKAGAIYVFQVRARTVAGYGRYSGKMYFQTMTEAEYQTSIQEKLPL
Summary of the method: as §1

human EphB3 = target: T4, human EphB3 (Homo sapiens, UniProt P54753)
T4 construct: a protein of the extracellular region of each human Eph receptor fused with the SEAP protein and the His tag; made in house; host or cells: Expi293F cells
T4 sequence (P54753 34-559 limits assumed): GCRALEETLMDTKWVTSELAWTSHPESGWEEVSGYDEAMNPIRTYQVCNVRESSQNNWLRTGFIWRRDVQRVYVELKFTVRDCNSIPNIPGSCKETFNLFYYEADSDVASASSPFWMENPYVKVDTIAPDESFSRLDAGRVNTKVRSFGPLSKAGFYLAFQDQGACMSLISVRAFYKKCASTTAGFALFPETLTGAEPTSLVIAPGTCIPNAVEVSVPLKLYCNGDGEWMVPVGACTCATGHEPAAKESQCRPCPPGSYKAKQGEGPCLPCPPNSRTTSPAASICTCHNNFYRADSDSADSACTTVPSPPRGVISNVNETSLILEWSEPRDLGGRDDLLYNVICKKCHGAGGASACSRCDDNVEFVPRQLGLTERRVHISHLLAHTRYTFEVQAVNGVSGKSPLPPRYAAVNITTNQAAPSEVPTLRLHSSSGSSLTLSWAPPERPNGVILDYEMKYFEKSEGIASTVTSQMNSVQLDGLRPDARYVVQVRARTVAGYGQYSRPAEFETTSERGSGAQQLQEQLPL
Summary of the method: as §1

B3: 76 (antibody, V domains shown)
VH: QVQLVQSGSELKKPGASVKVSCKASGYTFTDYSMHWVRQAPGQGLKWMGWINTETGEPTYAQGFTGRFVFSLDTSVSTAYLQISSLKAEDTAVYYCARIPLYYYGSRYWYFDVWGQGTTVTVSS
VL: DIQMTQSPSSLSASVGDRVTITCRASENIYRNLAWYQQKPGKAPKLLVYAATNLADGVPSRFSGSGSGTDYTLTISSLQPEDFATYYCQHFWGTPWTFGQGTKVEIK
modifications: synthetic humanized antibody heavy chain variable region sequence; synthetic humanized antibody light chain variable region sequence
- hEphA5-SEAP-: absorbance at 450 nm, percentage with respect to hEphA4-SEAP-His as 100% (human EphA5): 5.3%
- hEphB1-SEAP-: absorbance at 450 nm, percentage with respect to hEphA4-SEAP-His as 100% (human EphB1): 4.9%
- hEphB2-SEAP-: absorbance at 450 nm, percentage with respect to hEphA4-SEAP-His as 100% (human EphB2): 4.9%
- hEphB3-SEAP-: absorbance at 450 nm, percentage with respect to hEphA4-SEAP-His as 100% (human EphB3): 5.0%

B5: 77 (antibody, V domains shown)
VH: B3 VH with K46E, Q62D, G63D, T65K
VL: B3 VL
modifications: synthetic humanized antibody heavy chain variable region sequence; synthetic humanized antibody light chain variable region sequence
- hEphA5-SEAP-: absorbance at 450 nm, percentage with respect to hEphA4-SEAP-His as 100% (human EphA5): 4.4%
- hEphB1-SEAP-: absorbance at 450 nm, percentage with respect to hEphA4-SEAP-His as 100% (human EphB1): 4.6%
- hEphB2-SEAP-: absorbance at 450 nm, percentage with respect to hEphA4-SEAP-His as 100% (human EphB2): 4.5%
- hEphB3-SEAP-: absorbance at 450 nm, percentage with respect to hEphA4-SEAP-His as 100% (human EphB3): 4.6%

B6: 78 (antibody, V domains shown)
VH: B3 VH with Q62D, G63D, T65K
VL: B3 VL
modifications: synthetic humanized antibody heavy chain variable region sequence; synthetic humanized antibody light chain variable region sequence
- hEphA5-SEAP-: absorbance at 450 nm, percentage with respect to hEphA4-SEAP-His as 100% (human EphA5): 5.1%
- hEphB1-SEAP-: absorbance at 450 nm, percentage with respect to hEphA4-SEAP-His as 100% (human EphB1): 5.0%
- hEphB2-SEAP-: absorbance at 450 nm, percentage with respect to hEphA4-SEAP-His as 100% (human EphB2): 5.1%
- hEphB3-SEAP-: absorbance at 450 nm, percentage with respect to hEphA4-SEAP-His as 100% (human EphB3): 5.2%

B7: 67 (antibody, V domains shown)
VH: B3 VH with V2I
VL: B3 VL
modifications: synthetic humanized antibody heavy chain variable region sequence; synthetic humanized antibody light chain variable region sequence
- hEphA5-SEAP-: absorbance at 450 nm, percentage with respect to hEphA4-SEAP-His as 100% (human EphA5): 4.8%
- hEphB1-SEAP-: absorbance at 450 nm, percentage with respect to hEphA4-SEAP-His as 100% (human EphB1): 4.6%
- hEphB2-SEAP-: absorbance at 450 nm, percentage with respect to hEphA4-SEAP-His as 100% (human EphB2): 4.7%
- hEphB3-SEAP-: absorbance at 450 nm, percentage with respect to hEphA4-SEAP-His as 100% (human EphB3): 4.9%

B10: 75 (antibody)
VH: B3 VH with K46E
VL: B3 VL
chain: ASTKGPSVFPLAPSSKSTSGGTAALGCLVKDYFPEPVTVSWNSGALTSGVHTFPAVLQSSGLYSLSSVVTVPSSSLGTQTYICNVNHKPSNTKVDKRVEPKSCDKTHTCPPCPAPPAAAPSVFLFPPKPKDTLMISRTPEVTCVVVDVSHEDPEVQFNWYVDGVEVHNAKTKPREEQFNSTFRVVSVLTVVHQDWLNGKEYKCKVSNKGLPAPIEKTISKTKGQPREPQVYTLPPSREEMTKNQVSLTCLVKGFYPSDIAVEWESNGQPENNYKTTPPMLDSDGSFFLYSKLTVDKSRWQQGNVFSCSVMHEALHNHYTQKSLSLSPG
modifications: synthetic humanized antibody heavy chain variable region sequence; synthetic humanized antibody light chain variable region sequence; synthetic antibody constant region sequence
- hEphA5-SEAP-: absorbance at 450 nm, percentage with respect to hEphA4-SEAP-His as 100% (human EphA5): 4.7%
- hEphB1-SEAP-: absorbance at 450 nm, percentage with respect to hEphA4-SEAP-His as 100% (human EphB1): 4.4%
- hEphB2-SEAP-: absorbance at 450 nm, percentage with respect to hEphA4-SEAP-His as 100% (human EphB2): 4.5%
- hEphB3-SEAP-: absorbance at 450 nm, percentage with respect to hEphA4-SEAP-His as 100% (human EphB3): 4.7%

Second part, the molecule after the results:

- hEphA5-SEAP-: absorbance at 450 nm, percentage with respect to hEphA4-SEAP-His as 100% (human EphA5): 4.7%
- hEphB1-SEAP-: absorbance at 450 nm, percentage with respect to hEphA4-SEAP-His as 100% (human EphB1): 4.6%
- hEphB2-SEAP-: absorbance at 450 nm, percentage with respect to hEphA4-SEAP-His as 100% (human EphB2): 4.6%
- hEphB3-SEAP-: absorbance at 450 nm, percentage with respect to hEphA4-SEAP-His as 100% (human EphB3): 4.7%
B1: 133 (antibody, V domains shown)
VH: B3 VH with K46E
VL: EIVMTQSPATLSVSPGERATLSCRASENIYRNLAWYQQKPGQSPRLLIYAATNLADGIPARFSGSGSGTEYTLTISSLQSEDFAVYYCQHFWGTPWTFGQGTKVEIK
modifications: synthetic humanized antibody heavy chain variable region sequence; synthetic humanized antibody light chain variable region sequence

- hEphA5-SEAP-: absorbance at 450 nm, percentage with respect to hEphA4-SEAP-His as 100% (human EphA5): 5.2%
- hEphB1-SEAP-: absorbance at 450 nm, percentage with respect to hEphA4-SEAP-His as 100% (human EphB1): 5.1%
- hEphB2-SEAP-: absorbance at 450 nm, percentage with respect to hEphA4-SEAP-His as 100% (human EphB2): 5.1%
- hEphB3-SEAP-: absorbance at 450 nm, percentage with respect to hEphA4-SEAP-His as 100% (human EphB3): 5.2%
B2: 134 (antibody, V domains shown)
VH: B3 VH
VL: B1 VL
modifications: synthetic humanized antibody heavy chain variable region sequence; synthetic humanized antibody light chain variable region sequence

- hEphA5-SEAP-: absorbance at 450 nm, percentage with respect to hEphA4-SEAP-His as 100% (human EphA5): 4.7%
- hEphB1-SEAP-: absorbance at 450 nm, percentage with respect to hEphA4-SEAP-His as 100% (human EphB1): 4.8%
- hEphB2-SEAP-: absorbance at 450 nm, percentage with respect to hEphA4-SEAP-His as 100% (human EphB2): 4.7%
- hEphB3-SEAP-: absorbance at 450 nm, percentage with respect to hEphA4-SEAP-His as 100% (human EphB3): 4.7%
B4: 132 (antibody, V domains shown)
VH: B3 VH with V2I
VL: B1 VL
modifications: synthetic humanized antibody heavy chain variable region sequence; synthetic humanized antibody light chain variable region sequence

- hEphA5-SEAP-: absorbance at 450 nm, percentage with respect to hEphA4-SEAP-His as 100% (human EphA5): 5.0%
- hEphB1-SEAP-: absorbance at 450 nm, percentage with respect to hEphA4-SEAP-His as 100% (human EphB1): 5.1%
- hEphB2-SEAP-: absorbance at 450 nm, percentage with respect to hEphA4-SEAP-His as 100% (human EphB2): 5.0%
- hEphB3-SEAP-: absorbance at 450 nm, percentage with respect to hEphA4-SEAP-His as 100% (human EphB3): 5.0%
B8: 135 (antibody, V domains shown)
VH: B3 VH with K46E, Q62D, G63D, T65K
VL: B1 VL
modifications: synthetic humanized antibody heavy chain variable region sequence; synthetic humanized antibody light chain variable region sequence

- hEphA5-SEAP-: absorbance at 450 nm, percentage with respect to hEphA4-SEAP-His as 100% (human EphA5): 5.7%
- hEphB1-SEAP-: absorbance at 450 nm, percentage with respect to hEphA4-SEAP-His as 100% (human EphB1): 5.4%
- hEphB2-SEAP-: absorbance at 450 nm, percentage with respect to hEphA4-SEAP-His as 100% (human EphB2): 5.5%
- hEphB3-SEAP-: absorbance at 450 nm, percentage with respect to hEphA4-SEAP-His as 100% (human EphB3): 5.6%
B9: 156 (antibody, V domains shown)
VH: B3 VH with V2I
VL: B3 VL with K45Q, V48L
modifications: synthetic humanized antibody heavy chain variable region sequence; synthetic humanized antibody light chain variable region sequence
